According to US20200181263A1 (NUMAB THERAPEUTICS, published 2020):

T1: cyno CD3 (cyno, UniProt Q95LI5 22-117)
T1 sequence (looked up): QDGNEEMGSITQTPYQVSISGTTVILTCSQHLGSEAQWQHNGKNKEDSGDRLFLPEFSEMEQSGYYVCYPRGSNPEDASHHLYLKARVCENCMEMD

T2: human IL-23 receptor ECD (human, UniProt Q5VWK5 24-355)
T2 construct: extracellular domain
T2 sequence (looked up): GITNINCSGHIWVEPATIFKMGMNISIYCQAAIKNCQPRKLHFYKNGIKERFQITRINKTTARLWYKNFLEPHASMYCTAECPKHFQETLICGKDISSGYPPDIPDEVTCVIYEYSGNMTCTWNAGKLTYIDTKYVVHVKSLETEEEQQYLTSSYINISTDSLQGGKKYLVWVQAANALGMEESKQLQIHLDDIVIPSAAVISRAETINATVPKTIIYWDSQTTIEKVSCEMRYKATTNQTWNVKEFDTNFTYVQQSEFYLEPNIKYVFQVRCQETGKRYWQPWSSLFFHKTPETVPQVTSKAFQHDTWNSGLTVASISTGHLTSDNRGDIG

B1: PRO747 (other)
chain 1: DIQMTQSPSSLSASVGDRVTITCQASENIYSFLAWYQQKPGKAPKLLIYSASKLAAGVPSRFSGSGSGTDFTLTISSLQPEDFATYYCQQTNRYSNPDIYNVFGTGTKVTVLGGGGGSGGGGSGGGGSGGGGSEVQLVESGGGLVQPGGSLRLSCAASGIDFNSNYYMCWVRQAPGKGLEWIGCIYVGSHVNTYYANWAKGRFTISRDNSKNTVYLQMNSLRAEDTAVYYCATSGSSVLYFKFWGQGTLVTVSSGGGGSGGGGSDIQMTQSPSSLSASVGDRVTITCQSSQSVFSNNYLAWFQQKPGQSPKRLIYSASTLASGVPSRFSGSGSGTDFTLTISSLQPEDFATYYCLGSYACSSADCYVFGCGTKVTVLGAEAAAKEAAAKADIQMTQSPSSLSASVGDRVTITCQSSESVYSNNQLSWYQQKPGQPPKLLIYDASDLASGVPSRFSGSGSGTDFTLTISSLQPEDFATYYCAGGFSSSSDTAFGGGTKLTVLG
chain 2: DIQMTQSPSSLSASVGDRVTITCQASENIYSFLAWYQQKPGKAPKLLIYSASKLAAGVPSRFSGSGSGTDFTLTISSLQPEDFATYYCQQTNRYSNPDIYNVFGTGTKVTVLGGGGGSGGGGSGGGGSGGGGSEVQLVESGGGLVQPGGSLRLSCAASGIDFNSNYYMCWVRQAPGKGLEWIGCIYVGSHVNTYYANWAKGRFTISRDNSKNTVYLQMNSLRAEDTAVYYCATSGSSVLYFKFWGQGTLVTVSSGGGGSGGGGSEVQLVESGGGLVQPGGSLRLSCAASGFSLSSNAMGWVRQAPGKGLEYIGIISVGGFTYYASWAKGRFTISRDNSKNTVYLQMNSLRAEDTATYFCARDRHGGDSSGAFYLWGQGTLVTVSSAEAAAKEAAAKAEVQLVESGGGLVQPGGSLRLSCAASGFSLSSYDMSWVRQAPGKCLAWIGASYASGPTYYASWAKGRFTISRDNSKNTVYLQMNSLRAEDTATYFCARGGWTGTSHSNIWGQGTLVTVSS
notes: Hetero-dimeric MATCH, anti-parallel; diS in anti-CD3 domain, helical linker
B2: PRO733 (other)
chain 1: DIQMTQSPSSLSASVGDRVTITCQASENIYSFLAWYQQKPGKAPKLLIYSASKLAAGVPSRFSGSGSGTDFTLTISSLQPEDFATYYCQQTNRYSNPDIYNVFGTGTKVTVLGGGGGSGGGGSGGGGSGGGGSEVQLVESGGGLVQPGGSLRLSCAASGIDFNSNYYMCWVRQAPGKGLEWIGCIYVGSHVNTYYANWAKGRFTISRDNSKNTVYLQMNSLRAEDTAVYYCATSGSSVLYFKFWGQGTLVTVSSGGGGSGGGGSDIQMTQSPSSLSASVGDRVTITCQSSESVYNNKRLSWYQQKPGKAPKLLIYTASSLASGVPSRFSGSGSGTDFTLTISSLQPEDFATYYCQGEFTCSNADCFTFGCGTKVTVLGSGGGGSGGGGSDIQMTQSPSSLSASVGDRVTITCQSSESVYSNNQLSWYQQKPGQPPKLLIYDASDLASGVPSRFSGSGSGTDFTLTISSLQPEDFATYYCAGGFSSSSDTAFGGGTKLTVLG
chain 2: DIQMTQSPSSLSASVGDRVTITCQASENIYSFLAWYQQKPGKAPKLLIYSASKLAAGVPSRFSGSGSGTDFTLTISSLQPEDFATYYCQQTNRYSNPDIYNVFGTGTKVTVLGGGGGSGGGGSGGGGSGGGGSEVQLVESGGGLVQPGGSLRLSCAASGIDFNSNYYMCWVRQAPGKGLEWIGCIYVGSHVNTYYANWAKGRFTISRDNSKNTVYLQMNSLRAEDTAVYYCATSGSSVLYFKFWGQGTLVTVSSGGGGSGGGGSEVQLVESGGGLVQPGGSLRLSCAASGFPLSSYAMIWVRQAPGKCLEWIGMILRAGNIYYASWVKGRFTISRDNSKNTVYLQMNSLRAEDTAVYYCARRHYNREGYPIGIGDLWGQGTLVTVSSSGGGGSGGGGSEVQLVESGGGLVQPGGSLRLSCAASGFSLSSNAMGWVRQAPGKGLEYIGIISVGGFTYYASWAKGRFTISRDNSKNTVYLQMNSLRAEDTATYFCARDRHGGDSSGAFYLWGQGTLVTVSS
notes: Hetero-dimeric MATCH, parallel; diS in anti-CD3 domain, 11 aa GS-linker, alternative anti-CD3
B3: PRO736 (other)
chain 1: DIQMTQSPSSLSASVGDRVTITCQASENIYSFLAWYQQKPGKAPKLLIYSASKLAAGVPSRFSGSGSGTDFTLTISSLQPEDFATYYCQQTNRYSNPDIYNVFGTGTKVTVLGGGGGSGGGGSGGGGSGGGGSEVQLVESGGGLVQPGGSLRLSCAASGIDFNSNYYMCWVRQAPGKGLEWIGCIYVGSHVNTYYANWAKGRFTISRDNSKNTVYLQMNSLRAEDTAVYYCATSGSSVLYFKFWGQGTLVTVSSGGGGSGGGGSDIQMTQSPSSLSASVGDRVTITCQSSQSVFSNNYLAWFQQKPGQSPKRLIYSASTLASGVPSRFSGSGSGTDFTLTISSLQPEDFATYYCLGSYACSSADCYVFGCGTKVTVLGGGGGSGGGGSGGGGSDIQMTQSPSSLSASVGDRVTITCQSSESVYSNNQLSWYQQKPGQPPKLLIYDASDLASGVPSRFSGSGSGTDFTLTISSLQPEDFATYYCAGGFSSSSDTAFGGGTKLTVLG
chain 2: DIQMTQSPSSLSASVGDRVTITCQASENIYSFLAWYQQKPGKAPKLLIYSASKLAAGVPSRFSGSGSGTDFTLTISSLQPEDFATYYCQQTNRYSNPDIYNVFGTGTKVTVLGGGGGSGGGGSGGGGSGGGGSEVQLVESGGGLVQPGGSLRLSCAASGIDFNSNYYMCWVRQAPGKGLEWIGCIYVGSHVNTYYANWAKGRFTISRDNSKNTVYLQMNSLRAEDTAVYYCATSGSSVLYFKFWGQGTLVTVSSGGGGSGGGGSEVQLVESGGGLVQPGGSLRLSCAASGFSLSSYDMSWVRQAPGKCLAWIGASYASGPTYYASWAKGRFTISRDNSKNTVYLQMNSLRAEDTATYFCARGGWTGTSHSNIWGQGTLVTVSSGGGGSGGGGSGGGGSEVQLVESGGGLVQPGGSLRLSCAASGFSLSSNAMGWVRQAPGKGLEYIGIISVGGFTYYASWAKGRFTISRDNSKNTVYLQMNSLRAEDTATYFCARDRHGGDSSGAFYLWGQGTLVTVSS
notes: Hetero-dimeric MATCH, parallel; diS in anti-CD3 domain, 15 aa GS-linker
B4: PRO737 (other)
chain 1: DIQMTQSPSSLSASVGDRVTITCQASENIYSFLAWYQQKPGKAPKLLIYSASKLAAGVPSRFSGSGSGTDFTLTISSLQPEDFATYYCQQTNRYSNPDIYNVFGTGTKVTVLGGGGGSGGGGSGGGGSGGGGSEVQLVESGGGLVQPGGSLRLSCAASGIDFNSNYYMCWVRQAPGKGLEWIGCIYVGSHVNTYYANWAKGRFTISRDNSKNTVYLQMNSLRAEDTAVYYCATSGSSVLYFKFWGQGTLVTVSSGGGGSGGGGSDIQMTQSPSSLSASVGDRVTITCQSSESVYNNKRLSWYQQKPGKAPKLLIYTASSLASGVPSRFSGSGSGTDFTLTISSLQPEDFATYYCQGEFTCSNADCFTFGCGTKVTVLGGGGGSGGGGSGGGGSDIQMTQSPSSLSASVGDRVTITCQSSESVYSNNQLSWYQQKPGQPPKLLIYDASDLASGVPSRFSGSGSGTDFTLTISSLQPEDFATYYCAGGFSSSSDTAFGGGTKLTVLG
chain 2: DIQMTQSPSSLSASVGDRVTITCQASENIYSFLAWYQQKPGKAPKLLIYSASKLAAGVPSRFSGSGSGTDFTLTISSLQPEDFATYYCQQTNRYSNPDIYNVFGTGTKVTVLGGGGGSGGGGSGGGGSGGGGSEVQLVESGGGLVQPGGSLRLSCAASGIDFNSNYYMCWVRQAPGKGLEWIGCIYVGSHVNTYYANWAKGRFTISRDNSKNTVYLQMNSLRAEDTAVYYCATSGSSVLYFKFWGQGTLVTVSSGGGGSGGGGSEVQLVESGGGLVQPGGSLRLSCAASGFPLSSYAMIWVRQAPGKCLEWIGMILRAGNIYYASWVKGRFTISRDNSKNTVYLQMNSLRAEDTAVYYCARRHYNREGYPIGIGDLWGQGTLVTVSSGGGGSGGGGSGGGGSEVQLVESGGGLVQPGGSLRLSCAASGFSLSSNAMGWVRQAPGKGLEYIGIISVGGFTYYASWAKGRFTISRDNSKNTVYLQMNSLRAEDTATYFCARDRHGGDSSGAFYLWGQGTLVTVSS
notes: Hetero-dimeric MATCH, parallel; diS in anti-CD3 domain, 15 aa GS-linker, alternative anti-CD3
B5: PRO741 (other)
chain 1: DIQMTQSPSSLSASVGDRVTITCQASENIYSFLAWYQQKPGKAPKLLIYSASKLAAGVPSRFSGSGSGTDFTLTISSLQPEDFATYYCQQTNRYSNPDIYNVFGTGTKVTVLGGGGGSGGGGSGGGGSGGGGSEVQLVESGGGLVQPGGSLRLSCAASGIDFNSNYYMCWVRQAPGKGLEWIGCIYVGSHVNTYYANWAKGRFTISRDNSKNTVYLQMNSLRAEDTAVYYCATSGSSVLYFKFWGQGTLVTVSSGGGGSGGGGSDIQMTQSPSSLSASVGDRVTITCQSSQSVFSNNYLAWFQQKPGQSPKRLIYSASTLASGVPSRFSGSGSGTDFTLTISSLQPEDFATYYCLGSYACSSADCYVFGCGTKVTVLGSGGGGSGGGGSDVVMTQSPSSLSASVGDRVTITCQASQIISSRSAWYQQKPGQPPKLLIYQASKLASGVPSRFSGSGSGTDFTLTISSLQPEDFATYYCQCTYIDSNFGAFGGGTKLTVLG
chain 2: DIQMTQSPSSLSASVGDRVTITCQASENIYSFLAWYQQKPGKAPKLLIYSASKLAAGVPSRFSGSGSGTDFTLTISSLQPEDFATYYCQQTNRYSNPDIYNVFGTGTKVTVLGGGGGSGGGGSGGGGSGGGGSEVQLVESGGGLVQPGGSLRLSCAASGIDFNSNYYMCWVRQAPGKGLEWIGCIYVGSHVNTYYANWAKGRFTISRDNSKNTVYLQMNSLRAEDTAVYYCATSGSSVLYFKFWGQGTLVTVSSGGGGSGGGGSEVQLVESGGGLVQPGGSLRLSCAASGFSFSSSYWICWVRQAPGKGLEWVGCVFTGDGTTYYASWAKGRFTISRDNSKNTVYLQMNSLRAEDTATYFCARPVSVYYYGMDLWGQGTLVTVSSSGGGGSGGGGSEVQLVESGGGLVQPGGSLRLSCAASGFSLSSYDMSWVRQAPGKCLAWIGASYASGPTYYASWAKGRFTISRDNSKNTVYLQMNSLRAEDTATYFCARGGWTGTSHSNIWGQGTLVTVSS
notes: Hetero-dimeric MATCH, anti-parallel; diS in anti-CD3 domain, 11 aa GS-linker, alternative anti-HSA

What was measured:
cyno CD3 = target: T1, cyno CD3; assay: SPR, target immobilised by amine coupling, binder as analyte
human IL-23 receptor ECD = target: T2, human IL-23 receptor ECD; assay: as above
human serum albumin = target: T3, human serum albumin (human, UniProt P02768 25-609); assay: as above
T3 construct: also called HSA

[1] = target: T4, human CD3 gamma-epsilon single-chain (human, UniProt P09693 23-103; P07766 23-118); assay: as above
T4 construct: Recombinant protein immobilised on the SPR chip

[2] = target: human IL23R IL12Rbeta 1 heterodimer on CHO-K1 cells (human, UniProt Q5VWK5 24-629; P42701 24-662); assay: cell-based or functional assay

Row | Binder | Kd (cyno CD3) | Kd (human IL-23 receptor ECD) | Kd (human serum albumin) | Kd [1] | NFAT assay EC50 (T-cell activation, 5 h) [2]
1 | B1 | 6.64 nM | 0.0383 nM | 0.325 nM | 8.3 nM | 1.45 nM
2 | B2 | 47.7 nM | 0.0366 nM | 0.495 nM | 26.5 nM | 0.152 nM
3 | B3 | 8.37 nM | 0.0482 nM | 0.635 nM | 11.1 nM | 
4 | B4 | 56.7 nM | 0.0334 nM | 0.493 nM | 24 nM | 
5 | B5 | 1.08 nM | 0.0378 nM | 0.338 nM | 7.58 nM | 
